Measured values reported in PMC8599648 (Molecular microbiology, 2021).
Substitutions are numbered along the chain they refer to. In names and notes the source's numbering stands.

B1: FNR D154A (natural protein, E. coli (strain MG1655), UniProt P0A9E5 1-250, looked up)
chain: MIPEKRIIRRIQSGGCAIHCQDCSISQLCIPFTLNEHELDQLDNIIERKKPIQKGQTLFKAGDELKSLYAIRSGTIKSYTITEQGDEQITGFHLAGDLVGFDAIGSGHHPSFAQALETSMVCEIPFETLDDLSGKMPNLRQQMMRLMSGEIKGAQDMILLLSKKNAEERLAAFIYNLSRRFAQRGFSPREFRLTMTRGDIGNYLGLTVETISRLLGRFQKSGMLAVKGKYITIENNDALAQLAGHTRNVA
B2: YnfK I184Y (enzyme, E. coli (strain MG1655), UniProt P0A6E9 1-231, looked up)
chain: MLKRFFITGTDTSVGKTVVSRALLQALASQGKTVAGYKPVAKGSKETPEGLRNKDALVLQSVSTIELPYEAVNPIALSEEESSVAHSCPINYTLISNGLANLTEKVDHVVVEGTGGWRSLMNDLRPLSEWVVQEQLPVLMVVGIQEGCINHALLTAQAIANDGLPLIGWVANRINPGLAHYAEYIDVLGKKLPAPLIGELPYLPRAEQRELGQYIRLAMLRSVLAVDRVTV
B3: YnfK S13E (enzyme, E. coli (strain MG1655), UniProt P0A6E9 1-231, looked up)
chain: B2 chain with S13E, Y184I
B4: YnfK T114A/I184Y (enzyme, E. coli (strain MG1655), UniProt P0A6E9 1-231, looked up)
chain: B2 chain with T114A
B5: YnfK S13E/I184Y (enzyme, E. coli (strain MG1655), UniProt P0A6E9 1-231, looked up)
chain: B2 chain with S13E
B6: YnfK T114A (enzyme, E. coli (strain MG1655), UniProt P0A6E9 1-231, looked up)
chain: B2 chain with T114A, Y184I

Biological target: the molecule itself
Assay: SEC

| Protein | stoichiometry N |
| --- | --- |
| B1 | 2 |

Biological target: the molecule itself
Assay: cross-linking

| Protein | binding result |
| --- | --- |
| B2 | binds |
| B3 | binds |
| B4 | binds |
| B5 | binds |
| B6 | binds |
